First the molecules themselves.
T1: Yhr016c SH3 (YSC84_YEAST), P32793
T1 chain: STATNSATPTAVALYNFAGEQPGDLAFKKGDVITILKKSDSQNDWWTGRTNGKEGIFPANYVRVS

T2: Boi1 SH3 (BOI1_YEAST), P38041
T2 chain: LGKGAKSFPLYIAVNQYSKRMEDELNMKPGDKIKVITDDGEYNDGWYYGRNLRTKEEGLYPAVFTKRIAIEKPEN

T3: Boi2 SH3 (BOI2_YEAST), P39969
T3 chain: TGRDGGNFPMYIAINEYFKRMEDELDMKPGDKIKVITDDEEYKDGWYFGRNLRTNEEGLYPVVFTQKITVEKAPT

T4: Rvs167 SH3 (RV167_YEAST), P39743
T4 chain: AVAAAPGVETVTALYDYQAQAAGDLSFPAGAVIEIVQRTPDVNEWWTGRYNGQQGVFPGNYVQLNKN

T5: Yfr024 SH3 (LSB3_YEAST), P43603
T5 chain: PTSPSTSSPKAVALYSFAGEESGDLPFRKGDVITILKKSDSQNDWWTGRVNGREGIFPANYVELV

T6: Myo5 SH3 (MYO5_YEAST), Q04439
T6 chain: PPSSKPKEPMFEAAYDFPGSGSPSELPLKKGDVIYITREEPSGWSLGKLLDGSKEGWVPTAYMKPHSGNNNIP

B1: YLL015W 59-72 (peptide)
chain: PPRFKNFPTLPSKI
B2: YBR154C 118-131 (peptide)
chain: PSAMKLVPSIPPAT
B3: YJR092W 754-767 (peptide)
chain: PPSIRKQPIAPDVL
B4: YOR181W 307-320 (peptide)
chain: PQQNRPLPQLPNRN
B5: YNL298W 493-506 (peptide)
chain: PQTMRQAPKRPDAD
B6: YPL204W 472-485 (peptide)
chain: PPQMRSNPQQPPQD
B7: YBR194W 90-103 (peptide)
chain: PSHYRNIPYNPATF

In the first assay the target is T1, Yhr016c SH3 (YSC84_YEAST), P32793. Briefly: SPOT array.
B1 showed a normalised SPOT signal, Boehringer light units (BLU); mean over the file's lines of this peptide of 87.6.
In turn, B2 yielded a normalised SPOT signal, Boehringer light units (BLU); mean over the file's lines of this peptide of 63.3.
In turn, B3 displayed a normalised SPOT signal, Boehringer light units (BLU); mean over the file's lines of this peptide of 29.6.
B4 registered a normalised SPOT signal, Boehringer light units (BLU); mean over the file's lines of this peptide of 50100.
Same read-out and setting: the same measure for B5: 6220; for B6: 456; for B7: 11.3.

A further assay deals with T2, Boi1 SH3 (BOI1_YEAST), P38041. Briefly: SPOT array.
As to B1, the normalised SPOT signal, Boehringer light units (BLU); mean over the file's lines of this peptide is 572.
The same measure, in the same setting: as for B2, the figure is 89.4; as for B3, 220; as for B4, 3740.
Same read-out and setting: as for B5, the figure is 350; as for B6, 92.2.
Same read-out and setting: as for B7, the figure is 188.

The next assay deals with T3, Boi2 SH3 (BOI2_YEAST), P39969. The experiment in a line: SPOT array.
Take B1: the normalised SPOT signal, Boehringer light units (BLU); mean over the file's lines of this peptide amounted to 60.1.
On the same count and under the same terms, as for B2, the figure is 21.6.
In the case of B3, the normalised SPOT signal, Boehringer light units (BLU); mean over the file's lines of this peptide is 13.5.
For B4, the normalised SPOT signal, Boehringer light units (BLU); mean over the file's lines of this peptide was 4.1.
B5 registered a normalised SPOT signal, Boehringer light units (BLU); mean over the file's lines of this peptide of 743.
Still for that read-out and setting: as for B6, the figure is 194; as for B7, 8.5.

In another assay the target is Sho1 SH3 (SHO1_YEAST), P40073. Briefly: SPOT array.
Chain of Sho1 SH3 (SHO1_YEAST), P40073 (P40073 295-366): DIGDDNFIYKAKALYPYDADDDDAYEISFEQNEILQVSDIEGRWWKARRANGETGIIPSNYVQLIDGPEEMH
In turn, B1 gave a normalised SPOT signal, Boehringer light units (BLU); mean over the file's lines of this peptide of 3830.
On the same count and under the same terms, the same measure for B2: 42.6.
B3: the normalised SPOT signal, Boehringer light units (BLU); mean over the file's lines of this peptide amounted to 25.8.
Still for that read-out and setting: as for B4, the figure is 31600.
Same read-out and setting: the same measure for B5: 121.
On the same count and under the same terms, as for B6, the figure is 56.5.
The molecule B7 had a normalised SPOT signal, Boehringer light units (BLU); mean over the file's lines of this peptide of 65.2.

The next assay concerns the target T4, Rvs167 SH3 (RV167_YEAST), P39743. The experiment in a line: SPOT array.
Consider B1, for which the normalised SPOT signal, Boehringer light units (BLU); mean over the file's lines of this peptide is 210.
In turn, B2 returned a normalised SPOT signal, Boehringer light units (BLU); mean over the file's lines of this peptide of 45.4.
As to B3, the normalised SPOT signal, Boehringer light units (BLU); mean over the file's lines of this peptide was found to be 49.5.
On the same count and under the same terms, the same measure for B4: 53800.
Same read-out and setting: the same measure for B5: 3750; for B6: 306; for B7: 27.8.

In another assay the target is T5, Yfr024 SH3 (LSB3_YEAST), P43603. Briefly: SPOT array.
As to B1, the normalised SPOT signal, Boehringer light units (BLU); mean over the file's lines of this peptide stood at 2550.
Molecule B2 yielded a normalised SPOT signal, Boehringer light units (BLU); mean over the file's lines of this peptide of 251.
On the same count and under the same terms, the same measure for B3: 450; for B4: 36200; for B5: 15700.
The molecule B6 registered a normalised SPOT signal, Boehringer light units (BLU); mean over the file's lines of this peptide of 3150.
Same read-out and setting: as for B7, the figure is 100.

In another assay the target is T6, Myo5 SH3 (MYO5_YEAST), Q04439. The experiment in a line: SPOT array.
Consider B1, for which the normalised SPOT signal, Boehringer light units (BLU); mean over the file's lines of this peptide came to 634.
On the same count and under the same terms, as for B2, the figure is 561.
Still for that read-out and setting: as for B3, the figure is 150.
For the molecule B4, the normalised SPOT signal, Boehringer light units (BLU); mean over the file's lines of this peptide was determined as 186.
Still for that read-out and setting: as for B5, the figure is 3260; as for B6, 268; as for B7, 175.
